T1: mouse pIgR extracellular domain (ECD) (mouse, UniProt O70570 19-645)
T1 construct: Bought from R&D Systems (Cat 2800-PG-050); also called mpIgR ECD
T1 sequence: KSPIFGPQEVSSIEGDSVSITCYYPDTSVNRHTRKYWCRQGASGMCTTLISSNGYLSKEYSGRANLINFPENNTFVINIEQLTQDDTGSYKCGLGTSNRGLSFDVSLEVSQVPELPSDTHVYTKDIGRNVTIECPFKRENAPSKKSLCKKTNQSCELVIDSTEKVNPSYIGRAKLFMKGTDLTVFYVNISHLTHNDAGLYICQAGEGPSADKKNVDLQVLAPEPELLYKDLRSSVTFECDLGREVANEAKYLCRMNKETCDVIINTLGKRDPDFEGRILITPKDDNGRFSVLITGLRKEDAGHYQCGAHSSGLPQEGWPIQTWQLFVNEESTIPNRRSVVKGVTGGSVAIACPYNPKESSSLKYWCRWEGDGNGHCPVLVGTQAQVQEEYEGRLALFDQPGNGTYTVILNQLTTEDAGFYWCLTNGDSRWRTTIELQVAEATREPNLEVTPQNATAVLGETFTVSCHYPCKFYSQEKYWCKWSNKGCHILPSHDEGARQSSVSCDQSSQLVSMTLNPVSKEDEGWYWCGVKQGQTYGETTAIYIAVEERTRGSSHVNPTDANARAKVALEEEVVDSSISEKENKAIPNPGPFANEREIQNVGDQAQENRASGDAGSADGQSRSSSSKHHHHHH

T2: rat pIgR extracellular domain (rat, UniProt P15083 19-643)
T2 construct: extracellular domain
T2 sequence (looked up): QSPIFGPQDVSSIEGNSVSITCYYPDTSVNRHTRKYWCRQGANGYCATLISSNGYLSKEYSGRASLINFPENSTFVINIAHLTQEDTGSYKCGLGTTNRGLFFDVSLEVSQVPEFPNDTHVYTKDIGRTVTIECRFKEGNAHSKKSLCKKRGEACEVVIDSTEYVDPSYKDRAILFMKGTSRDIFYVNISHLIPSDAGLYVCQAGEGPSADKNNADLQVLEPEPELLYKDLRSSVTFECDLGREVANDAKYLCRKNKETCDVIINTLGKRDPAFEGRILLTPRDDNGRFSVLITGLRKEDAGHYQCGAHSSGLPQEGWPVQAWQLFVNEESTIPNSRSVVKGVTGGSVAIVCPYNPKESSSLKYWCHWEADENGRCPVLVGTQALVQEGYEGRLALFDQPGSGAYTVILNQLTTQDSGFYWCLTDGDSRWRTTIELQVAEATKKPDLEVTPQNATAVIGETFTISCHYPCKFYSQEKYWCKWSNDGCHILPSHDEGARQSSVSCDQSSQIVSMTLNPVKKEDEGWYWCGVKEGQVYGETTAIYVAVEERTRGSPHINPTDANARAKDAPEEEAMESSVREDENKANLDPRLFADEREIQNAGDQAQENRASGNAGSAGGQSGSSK

B1: 01H10R2 VHH Mono-Fc (Fc fusion)
chain: QVQLVESGGGLVQPGGSLRLSCAASGRTSSISTMGWFRQAPGKEREFVTAIRWSGSSSYKYYADSVKGRFTISRDNARNTVYLQMNSLKPEDTAVYYCAAQMSLWRDPREIDYDYWGQGTLVTVSSSPAPELLGGPSVFLFPPKPKDTLMISRTPEVTCVVVDVSHEDPEVKFNWYVDGVEVHNAKTKPREEQYNSTYRVVSVLTVLHQDWLNGKEYKCKVSNKALPAPIEKTISKAKGQPREPQVYTKPPSREEMTKNQVSLSCLVKGFYPSDIAVEWESNGQPENNYKTTVPVLDSDGSFRLASYLTVDKSRWQQGNVFSCSVMHEALHNHYTQKSLSLSPGK
B2: 01A07R3 VHH Mono-Fc (Fc fusion)
chain: EVQLVESGGGLVQTGESLRLSCAASGRAFSDLRMAWFRQVPGKEREFVAAVEWRGSSRYYYSADSVKGRFTISRTSPKGETYLQMNGLKPEDTAVYYCAAVSPVVGDPRNSDTYNYWGQGTQVTVSSSPAPELLGGPSVFLFPPKPKDTLMISRTPEVTCVVVDVSHEDPEVKFNWYVDGVEVHNAKTKPREEQYNSTYRVVSVLTVLHQDWLNGKEYKCKVSNKALPAPIEKTISKAKGQPREPQVYTKPPSREEMTKNQVSLSCLVKGFYPSDIAVEWESNGQPENNYKTTVPVLDSDGSFRLASYLTVDKSRWQQGNVFSCSVMHEALHNHYTQKSLSLSPGK
B3: 01A01R3 VHH Mono-Fc (Fc fusion)
chain: EVQLVESGGGLVQAGGSLRLSCAASGSGRTFTSYTMGWFRQAPGKEREFVSALTWADDSTYYKYYADSMKGRLTISRDNAKNTVYLQMNSLKPEDTAVYYCVATGRGLTYDPRDRRKYDYWGQGTQVTVSSSPAPELLGGPSVFLFPPKPKDTLMISRTPEVTCVVVDVSHEDPEVKFNWYVDGVEVHNAKTKPREEQYNSTYRVVSVLTVLHQDWLNGKEYKCKVSNKALPAPIEKTISKAKGQPREPQVYTKPPSREEMTKNQVSLSCLVKGFYPSDIAVEWESNGQPENNYKTTVPVLDSDGSFRLASYLTVDKSRWQQGNVFSCSVMHEALHNHYTQKSLSLSPGK
B4: 01C03R3 VHH Mono-Fc (Fc fusion)
chain: QVQLVESGGGLVQAGGSLRLSCAASGRTFSSYAMGWFRQAPGKEREFVAAIHWNGASTYRYSADSVKGRFTISRDNAKNTVYLQMNSLKPEDTAAYYCAASPPPTVGDVRDPANYDSWGQGTLVTVSSSPAPELLGGPSVFLFPPKPKDTLMISRTPEVTCVVVDVSHEDPEVKFNWYVDGVEVHNAKTKPREEQYNSTYRVVSVLTVLHQDWLNGKEYKCKVSNKALPAPIEKTISKAKGQPREPQVYTKPPSREEMTKNQVSLSCLVKGFYPSDIAVEWESNGQPENNYKTTVPVLDSDGSFRLASYLTVDKSRWQQGNVFSCSVMHEALHNHYTQKSLSLSPGK
B5: 01H10R3 VHH Mono-Fc (Fc fusion)
chain: QVQLVESGGGLVQAGGSLRLSCAASGRAFSQYTMGWFRQAPGKEREFVTAIRWSGGSIYKYYADSVKGRFTISGDNARNTVDLQMNSLKPEDTAVYYCAARMSPWGDPRGNEYDYWGQGTLVTVSSSPAPELLGGPSVFLFPPKPKDTLMISRTPEVTCVVVDVSHEDPEVKFNWYVDGVEVHNAKTKPREEQYNSTYRVVSVLTVLHQDWLNGKEYKCKVSNKALPAPIEKTISKAKGQPREPQVYTKPPSREEMTKNQVSLSCLVKGFYPSDIAVEWESNGQPENNYKTTVPVLDSDGSFRLASYLTVDKSRWQQGNVFSCSVMHEALHNHYTQKSLSLSPGK
B6: 01F12R2 VHH Mono-Fc (Fc fusion)
chain: EVQLVESGGGLVQPGGSLRLSCAASGRTFSSYTMGWFRQAPGEEREFVSAISWSSDGTYYKYYTDTVKGRFTISRDNAETTVHLQMNSLKPEDTAVYYCAASSSGTYGDPRSEREYRYWGQGTLVTVSSSPAPELLGGPSVFLFPPKPKDTLMISRTPEVTCVVVDVSHEDPEVKFNWYVDGVEVHNAKTKPREEQYNSTYRVVSVLTVLHQDWLNGKEYKCKVSNKALPAPIEKTISKAKGQPREPQVYTKPPSREEMTKNQVSLSCLVKGFYPSDIAVEWESNGQPENNYKTTVPVLDSDGSFRLASYLTVDKSRWQQGNVFSCSVMHEALHNHYTQKSLSLSPGK
B7: 01G07R2L VHH Mono-Fc (Fc fusion)
chain: QVQLVESGGGLVQPGGSLRLSCVASGLPFSSSRMAWFAQAPGKEREFVAAIGWRGRTSYKYYADSVKGRFTVSGDNAKKTLDLQMKDLKPEDTALYFCAAHPNDDGDPRISGNYQYWGQGTQVTVSSSPAPELLGGPSVFLFPPKPKDTLMISRTPEVTCVVVDVSHEDPEVKFNWYVDGVEVHNAKTKPREEQYNSTYRVVSVLTVLHQDWLNGKEYKCKVSNKALPAPIEKTISKAKGQPREPQVYTKPPSREEMTKNQVSLSCLVKGFYPSDIAVEWESNGQPENNYKTTVPVLDSDGSFRLASYLTVDKSRWQQGNVFSCSVMHEALHNHYTQKSLSLSPGK
B8: 01C03R3LS VHH Mono-Fc (Fc fusion)
chain: B7 chain with Q1E, F29G, G52A, A63S, K79R, K89N
B9: 01F09R3 VHH Mono-Fc (Fc fusion)
chain: QVQLVESGGGLAQAGGSLTLSCAASGTAAGIDVMGWYRQTPGNSREFVARIFSNDVTHYADSVTGRFTLSRTQDKNTVSLQMNSLKPDDTGVYYCNARIWTGSTTVDYWGQGTQVTVSSSPAPELLGGPSVFLFPPKPKDTLMISRTPEVTCVVVDVSHEDPEVKFNWYVDGVEVHNAKTKPREEQYNSTYRVVSVLTVLHQDWLNGKEYKCKVSNKALPAPIEKTISKAKGQPREPQVYTKPPSREEMTKNQVSLSCLVKGFYPSDIAVEWESNGQPENNYKTTVPVLDSDGSFRLASYLTVDKSRWQQGNVFSCSVMHEALHNHYTQKSLSLSPGK
B10: 03D02R3 VHH Mono-Fc (Fc fusion)
chain: EVQLVESGGGLAQAGGSLRLSCTASGTISKIDVMAWYRQTPGNERELVARIFSNDVTHYVDSAKGRFTLSRAQDKNTVDLQMNSLEPDDAAVYYCNAQIWSDMRGRMDTYWGQGTLVTVSSSPAPELLGGPSVFLFPPKPKDTLMISRTPEVTCVVVDVSHEDPEVKFNWYVDGVEVHNAKTKPREEQYNSTYRVVSVLTVLHQDWLNGKEYKCKVSNKALPAPIEKTISKAKGQPREPQVYTKPPSREEMTKNQVSLSCLVKGFYPSDIAVEWESNGQPENNYKTTVPVLDSDGSFRLASYLTVDKSRWQQGNVFSCSVMHEALHNHYTQKSLSLSPGK

Where a chain is given by its changes, count along the chain named.

The Kd is the free concentration of one partner at which half of the binding sites on the other are occupied at equilibrium, for simple one-to-one binding.

T3 sequence (P01833 other isoform, or with tags, fused parts or gaps): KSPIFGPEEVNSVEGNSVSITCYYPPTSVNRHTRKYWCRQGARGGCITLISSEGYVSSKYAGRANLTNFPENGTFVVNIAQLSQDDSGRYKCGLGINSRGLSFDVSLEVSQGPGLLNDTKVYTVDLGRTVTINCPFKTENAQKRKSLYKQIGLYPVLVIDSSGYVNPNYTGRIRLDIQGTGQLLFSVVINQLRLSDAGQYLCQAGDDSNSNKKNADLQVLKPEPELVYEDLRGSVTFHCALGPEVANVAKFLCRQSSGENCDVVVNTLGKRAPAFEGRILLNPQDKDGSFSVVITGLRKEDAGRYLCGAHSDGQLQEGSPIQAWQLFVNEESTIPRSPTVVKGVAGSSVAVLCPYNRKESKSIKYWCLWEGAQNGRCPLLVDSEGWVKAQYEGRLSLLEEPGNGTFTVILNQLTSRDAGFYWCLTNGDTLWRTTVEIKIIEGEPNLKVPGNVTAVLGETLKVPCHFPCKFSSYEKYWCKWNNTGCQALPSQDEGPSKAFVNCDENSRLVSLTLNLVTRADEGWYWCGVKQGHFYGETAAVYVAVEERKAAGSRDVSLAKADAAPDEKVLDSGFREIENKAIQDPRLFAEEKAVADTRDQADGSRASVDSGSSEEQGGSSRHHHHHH

The first assay has as its target T3, human pIgR extracellular domain (ECD) (human, UniProt P01833 19-638).
T3 construct: Bought from R&D Systems (Cat 2717-PG-050); also called hpIgR ECD
The experiment in a line: SPR, VHH captured by anti-Fc, ECD analyte. The method, boiled down: (§1)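 Anti-human Fc surface captured VHH at 0.5 ug/ml (~200-300 RU); running buffer HBSP with 100 ug/ml BSA, 30 μL/min. Single-cycle kinetics with ECD injected low to high from 30 nM in 3-fold dilutions, dissociation 30 min. Double-referenced data globally fit to 1:1 Langmuir model for kon, koff, KD.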
In general terms: SPR reads the build-up and loss of mass on a sensor chip optically.
B1 displayed a Kd of 5.95 nM.

B2 showed a Kd of 0.2 nM.

B3 returned a Kd of 1.31 nM.

Turning to B4, binding was characterised by a dissociation constant (Kd) of 13.3 nM.

B5 came in with a Kd of 34 nM.

B6 came in with a Kd of 12.5 nM.

Molecule B7 yielded a Kd of 3.32 nM.

As for B8, the Kd was 4.87 nM.

B9: the dissociation constant Kd came out at 0.397 nM.

B10 returned a Kd of 0.391 nM.

The target of a further assay is T1, mouse pIgR extracellular domain (ECD). Briefly: SPR, VHH captured by anti-Fc, ECD analyte. Summed up:
as §1
On to B1, for which the Kd was 3.45 nM.

In turn, B2 came in with a Kd of 1.41 nM.

Molecule B3 had a dissociation constant (Kd) of 14 nM.

As for B4, the Kd amounted to 25.6 nM.

As to B5, the Kd was determined as 47.1 nM.

The molecule B6 displayed a dissociation constant Kd of 264 nM.

B7: the Kd turned out to be 0.948 nM.

The molecule B8 returned an equilibrium dissociation constant (Kd) of 0.8 nM.

On to B9, for which the affinity, expressed as Kd, was 985 nM.

Molecule B10 returned a Kd of 126 nM.

The target in the next assay is T4, cynomolgus monkey pIgR extracellular domain (cynomolgus monkey, UniProt A0A2K5WMU9 19-638).
T4 construct: extracellular domain
T4 sequence (A0A2K5WMU9 entry or part of it): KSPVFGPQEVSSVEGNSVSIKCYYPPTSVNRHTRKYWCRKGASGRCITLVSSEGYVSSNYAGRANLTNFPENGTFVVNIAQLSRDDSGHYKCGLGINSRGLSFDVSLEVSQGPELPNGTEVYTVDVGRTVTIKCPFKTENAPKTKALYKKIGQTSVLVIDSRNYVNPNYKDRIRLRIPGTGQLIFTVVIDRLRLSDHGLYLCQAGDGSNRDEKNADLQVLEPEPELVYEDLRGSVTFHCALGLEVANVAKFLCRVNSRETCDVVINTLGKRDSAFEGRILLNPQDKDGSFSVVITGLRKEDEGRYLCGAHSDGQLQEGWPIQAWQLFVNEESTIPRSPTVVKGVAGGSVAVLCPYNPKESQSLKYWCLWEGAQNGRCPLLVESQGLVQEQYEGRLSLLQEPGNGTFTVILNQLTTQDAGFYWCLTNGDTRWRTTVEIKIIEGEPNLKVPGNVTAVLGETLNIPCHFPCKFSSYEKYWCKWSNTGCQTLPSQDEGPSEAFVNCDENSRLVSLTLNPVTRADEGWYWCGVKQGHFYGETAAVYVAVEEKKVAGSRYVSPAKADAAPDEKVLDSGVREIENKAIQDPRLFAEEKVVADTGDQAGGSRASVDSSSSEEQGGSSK
The experiment in a line: SPR, VHH captured by anti-Fc, ECD analyte. Summed up: as §1
In turn, B1 gave a Kd of 2.92 nM.

With B2, the Kd worked out at 10.7 nM.

B3 had a Kd of 4.93 nM.

B4 showed a Kd of 22.2 nM.

In the case of B5, the Kd turned out to be 94.6 nM.

As for B6, the Kd is 3.17 nM.

Molecule B7 registered a Kd of 4.02 nM.

Regarding B8, binding was characterised by a dissociation constant (Kd) of 2.84 nM.

With B9, binding was characterised by a dissociation constant (Kd) of 566 nM.

As for B10, the dissociation constant Kd was determined as 37.8 nM.

For the next assay, the target named is T2, rat pIgR extracellular domain. The experiment in a line: SPR, VHH captured by anti-Fc, ECD analyte. The method, boiled down:
as §1
For the molecule B1, the Kd came out at 2.4 nM.

Turning to B2, the Kd stood at 1.24 nM.

For the molecule B3, the affinity, expressed as Kd, was 1.34 nM.

The molecule B4 showed a Kd of 15.2 nM.

In turn, B5 returned a Kd of 11.4 nM.

B6 had a Kd of 4.2 nM.

As to B7, the Kd was 1.44 nM.

B8 registered a Kd of 3.02 nM.

B9 had a Kd of 70.8 nM.

The molecule B10 displayed a Kd of 126 nM.

The record behind these values is patent US20220112276A1 (Janssen / Centocor, published 2022).
